Consider 3 sequences from the DeepSol protein solubility set.

The series can be described thus: soluble on expression in E. coli; label from the status in PepcDB or PDB records.
As for “YPHHLGTSPRHPLNSGTEMAGGAWGRLACYLEFLKKEELKEFQLLLANKAHSRSSSGETPAQPEKTSGMEVASYLVAQYGEQRAWDLALHTWEQMGLRSLCAQAQEGAGHSPSFPYSPSEPHLGSPSQPTSTAVLMPWIHELPAGCTQGSERRVLRQLPDTSGRRWREISASLLYQALPSSPDHESPSQESPNAPTSTAVLGSWGSPPQPSLAPREQEAPGTQWPLDETSGIYYTEIREREREKSEKGRPPWAAVVGTPPQAHTSLQPHHHPWEPSVRESLCSTWPWKNEDFNQKFTQLLLLQRPHPRSQDPLVKRSWPDYVEENRGHLIEIRDLFGPGLDTQEPRIVILQGAAGIGKSTLARQVKEAWGRGQLYGDRFQHVFYFSCRELAQSKVVSLAELIGKDGTATPAPIRQILSRPERLLFILDGVDEPGWVLQEPSSELCLHWSQPQPADALLGSLLGKTILPEASFLITARTTALQNLIPSLEQARWVEVLGFSESSRKEYFYRYFTDERQAIRAFRLVKSNKELWALCLVPWVSWLACTCLMQQMKRKEKLTLTSKTTTTLCLHYLAQALQAQPLGPQLRDLCSLAAEGIWQKKTLFSPDDLRKHGLDGAIISTFLKMGILQEHPIPLSYSFIHLCFQEFFAAMSYVLEDEKGRGKHSNCIIDLEKTLEAYGIHGLFGASTTRFLLGLLSDEGEREMENIFHCRLSQGRNLMQWVPSLQLLLQPHSLESLHCLYETRNKTFLTQVMAHFEEMGMCVETDMELLVCTFCIKFSRHVKKLQLIEGRQHRSTWSPTMVVLFRWVPVTDAYWQILFSVLKVTRNLKELDLSGNSLSHSAVKSLCKTLRRPRCLLETLRLAGCGLTAEDCKDLAFGLRANQTLTELDLSFNVLTDAGAKHLCQRLRQPSCKLQRLQLVSCGLTSDCCQDLASVLSASPSLKELDLQQNNLDDVGVRLLCEGLRHPACKLIRLGLDQTTLSDEMRQELRALEQEKPQLLIFSRRKPSVMTPTEGLDTGEMSNSTSSLKRQRLGSERAASHVAQANLKLLDVSKIFPIAEIAEESSPEVVPVELLCVPSPASQGDLHTKPLGTDDDFWGPTGPVATEVVDKEKNLYRVHFPVAGSYRWPNTGLCFVMREAVTVEIEFCVWDQFLGEINPQHSWMVAGPLLDIKAEPGAVEAVHLPHFVALQGGHVDTSLFQMAHFKEEGMLLEKPARVELHHIVLENPSFSPLGVLLKMIHNALRFIPVTSVVLLYHRVHPEEVTFHLYLIPSDCSIRKELELCYRSPGEDQLFSEFYVGHLGSGIRLQVKDKKDETLVWEALVKPGDLMPATTLIPPARIAVPSPLDAPQLLHFVDQYREQLIARVTSVEVVLDKLHGQVLSQEQYERVLAENTRPSQMRKLFSLSQSWDRKCKDGLYQALKETHPHLIMELWEKGSKKGLLPLSS”, the “soluble on expression in E. coli” value was “soluble”.
Consider “YTVEPVQDGERSVTLRRAGGTPLVAAMYHLPAAGSPDFVGLDLAATILADTPSGRLYHALVPTKLASGVFGFTMDQLDPGLAMFGAQLQPGMDQDKALQTLTATLESLSSKPFSQEELERARSKWLTAWQQTYADPEKVGVALSEAIASGDWRLFFLQRDRVRDAKLDDVQRAAVAYLVRSNRTEGRYIPTEKPQRAPLAQRADLAAV”, for which the “soluble on expression in E. coli” value is recorded as “soluble”.
In the case of “YWGPLDVGEAKSLPGMEDPKLVYIPSIAPSNMVLYRGDKYSELDGKILVGALKLTHINVVGINDGKLTESQRLLEKLGERIRDITISPDGYIYFSTDSGKIFRLTEQ”, the “soluble on expression in E. coli” value is reported as “not soluble”.
